The record followed here is PMC314469, “Protein Interaction Networks by Proteome Peptide Scanning” (PLoS Biology, 2004).

Assay [1] addresses endophilin SH3 (SH3G2_HUMAN), Q99962. Description: SPOT array.
Assay [2] concerns the target T1, amphyphisin SH3 (AMPH_HUMAN), P49418.
T1 chain: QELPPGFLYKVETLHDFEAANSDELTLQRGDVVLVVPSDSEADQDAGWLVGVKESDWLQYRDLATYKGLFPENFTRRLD
As to the kind of experiment: SPOT array.

For the molecule EKPKLRRPSDRSNG [Q9H9V7 590-603], the results for the normalised SPOT signal, Boehringer light units (BLU); mean over the file's lines of this peptide in assay [1] and in assay [2] were 80.5 and 10.1, respectively.
On the same counts, the results for EKPILDRPTRISQP [Q9Y403 100-113] are 0.6 and 57.1.
ENDNIERPVRRRHS [Q9NR92 11-24]: the normalised SPOT signal, Boehringer light units (BLU); mean over the file's lines of this peptide in assay [1] was 59.3; in assay [2] it was 88.7.
On the same counts, the results for EPGLPVRPPGGGQS [O95954 457-471] are 59.4 and 374.
In the case of ELTIIERPVRRSLK [Q9HCF0 45-58], the figures for the normalised SPOT signal, Boehringer light units (BLU); mean over the file's lines of this peptide in assay [1] and in assay [2] were 61.6 and 700, respectively.
In the case of EGTYPRRPGSSPKV [Q9UJX9 322-335], the normalised SPOT signal, Boehringer light units (BLU); mean over the file's lines of this peptide in assay [1] came out at 73.1; in assay [2] it was 54.8.
On the same counts, the results for ELHVPIRPPRPSSP [O00485 108-122] are 3980 and 12300.
As to EGVPFRRPSTFGIP [P78347 776-789], the results for the normalised SPOT signal, Boehringer light units (BLU); mean over the file's lines of this peptide in assay [1] and in assay [2] were 112 and 31.2, respectively.
On the same counts, the results for EHRPLKRPRPRLGP [Q9UHV6 43-56] are 82 and 22.
EGTEPRRPRAGPEE [P18887 302-315]: the normalised SPOT signal, Boehringer light units (BLU); mean over the file's lines of this peptide in assay [1] worked out at 4.9; in assay [2], 36.7.
Turning to AGNLPSRPPPLSSP [Q96LQ5 87-101], the normalised SPOT signal, Boehringer light units (BLU); mean over the file's lines of this peptide came out at 1080 in assay [1] and 59.7 in assay [2].
In the case of ELEQLRRPPGTAER [Q9NZQ6 1526-1539], the normalised SPOT signal, Boehringer light units (BLU); mean over the file's lines of this peptide in assay [1] stood at 126; in assay [2], 15.8.
In the case of EKGQPSRPTKSKDA [Q9NSC3 29-42], the normalised SPOT signal, Boehringer light units (BLU); mean over the file's lines of this peptide in assay [1] was determined as 143; in assay [2] it was 82.2.
Regarding EMEPPPKPPRSSSA [Q9H7I0 90-104], the normalised SPOT signal, Boehringer light units (BLU); mean over the file's lines of this peptide was 298 in assay [1] and 4690 in assay [2].
Consider ELPRPRRPPPEDEE [P22460 83-97], for which the normalised SPOT signal, Boehringer light units (BLU); mean over the file's lines of this peptide came out at 36.9 in assay [1] and 40 in assay [2].
With EKDHIRRPMNAFMI [Q9UEG5 39-52], the normalised SPOT signal, Boehringer light units (BLU); mean over the file's lines of this peptide was 67 in assay [1] and 30.2 in assay [2].
ELAHLVRPQKSRPY [P42858 194-207]: the normalised SPOT signal, Boehringer light units (BLU); mean over the file's lines of this peptide was found to be 86.2 in assay [1] and 166 in assay [2].
On the same counts, the results for EMPHLARPIKVESP [Q08050 469-482] are 158 and 145.
In the case of EKGELGRPGRKGRP [Q9Y215 121-134], the normalised SPOT signal, Boehringer light units (BLU); mean over the file's lines of this peptide in assay [1] was 164; in assay [2], 103.
On the same counts, the results for ELYLLFRPFKGYEG [Q93062 39-52] are 178 and 129.
On the same counts, the results for ELPRPRRPPLQWRY [Q9NSY0 103-117] are 5930 and 1080.
In the case of EIMSPRKPPLFLTK [BAC04837 210-224], the normalised SPOT signal, Boehringer light units (BLU); mean over the file's lines of this peptide in assay [1] amounted to 1680; in assay [2] it was 136.
Consider AALLFLRPPRVRGH [Q9NPN2 39-52], for which the values for the normalised SPOT signal, Boehringer light units (BLU); mean over the file's lines of this peptide in assay [1] and in assay [2] were 82.4 and 8020, respectively.
With ENESPLKPPGISMD [Q92610 35-49], the values for the normalised SPOT signal, Boehringer light units (BLU); mean over the file's lines of this peptide in assay [1] and in assay [2] were 22.2 and 50.4, respectively.
As for EHREPKRPEIIFLP [O43196 121-134], the normalised SPOT signal, Boehringer light units (BLU); mean over the file's lines of this peptide in assay [1] was determined as 43.4; in assay [2] it was 31.2.
Regarding EIAKLKRPTALKKV [Q93073 574-587], the results for the normalised SPOT signal, Boehringer light units (BLU); mean over the file's lines of this peptide in assay [1] and in assay [2] were 85.5 and 16.3, respectively.
As to EKIPFERPFRRPNA [Q9NVW8 327-340], the normalised SPOT signal, Boehringer light units (BLU); mean over the file's lines of this peptide in assay [1] was found to be 123; in assay [2], 948.
Turning to EHPEPKRPSVDSLV [Q9C0I2 974-987], the normalised SPOT signal, Boehringer light units (BLU); mean over the file's lines of this peptide was 0 in assay [1] and 50.2 in assay [2].
On the same counts, the results for EIPKPIKPPTYQVL [O60504 440-454] are 62.9 and 52.6.
On the same counts, the results for AGLRPPKPPRPASL [O75190 254-268] are 12300 and 2380.
As for ELYPISRPLKKTWE [Q15047 309-322], the normalised SPOT signal, Boehringer light units (BLU); mean over the file's lines of this peptide in assay [1] and in assay [2] was -0 each time.
Consider EPEEPKRPVPAERG [Q16584 619-632], for which the normalised SPOT signal, Boehringer light units (BLU); mean over the file's lines of this peptide in assay [1] came out at 40.1; in assay [2] it was 104.
Regarding AGPRLPRPPREGST [Q9H224 58-71], the normalised SPOT signal, Boehringer light units (BLU); mean over the file's lines of this peptide is 1130 in assay [1] and 2230 in assay [2].
On the same counts, the results for AGPGPARPPVPPRP [P52849 60-74] are 3370 and 5580.
Regarding EHRPPEKPPRPPRP [Q8TEL4 107-121], the normalised SPOT signal, Boehringer light units (BLU); mean over the file's lines of this peptide is 9880 in assay [1] and 9830 in assay [2].
In the case of EHPRLRRPMPWLLL [Q9Y5I4 12-25], the normalised SPOT signal, Boehringer light units (BLU); mean over the file's lines of this peptide is 783 in assay [1] and 85.8 in assay [2].
As for EMTPPPKPPRLYLP [Q9UM03 505-519], the normalised SPOT signal, Boehringer light units (BLU); mean over the file's lines of this peptide in assay [1] came out at 601; in assay [2] it was 1820.
Regarding EIGFPGRPGRPGMN [P39060 984-997], the normalised SPOT signal, Boehringer light units (BLU); mean over the file's lines of this peptide is 108 in assay [1] and 139 in assay [2].
